Series [1] addresses T1, MBP-TtProDH EE (Thermus thermophilus, UniProt Q72IB8, F10E/L12E, form not given).
T1 construct: gene TT_C1214; full-length, Phe10 and Leu12 replaced by Glu; N-terminal MBP tag kept; E. coli TOP10; tetramer; FAD
As to the kind of experiment: residual proline:DCPIP activity after incubation; flavin absorption spectra. The class given is biochemical. The conditions noted are these: covalent; suicide inhibitor, flavin N(5)-Lys99 adduct; 40 µM enzyme, pH 7.4, 25 °C.

Series [2] deals with T2, MBP-TtProDH ΔAB (Thermus thermophilus, UniProt Q72IB8, V32D, form not given).
T2 construct: gene TT_C1214

The target of series [3] is T3, MBP-TtProDH ΔAB (Thermus thermophilus, UniProt Q72IB8, V36D, form not given).
T3 construct: gene TT_C1214

Series [4] deals with T4, MBP-TtProDH ΔA (Thermus thermophilus, UniProt Q72IB8).
T4 construct: gene TT_C1214; lacks N-terminal helix αA; start 19 (QVERLIKHRAKG...) derived from printed primer; N-terminal MBP tag kept; E. coli TOP10; tetramer; FAD
Nature of the series: residual proline:DCPIP activity after incubation; flavin absorption spectra. Conditions: covalent; suicide inhibitor, flavin N(5)-Lys99 adduct; 40 µM enzyme, pH 7.4, 25 °C. Type of series: biochemical.

The target in series [5] is T5, MBP-TtProDH ΔAB (Thermus thermophilus, UniProt Q72IB8).
T5 construct: gene TT_C1214; lacks N-terminal helices αA and αB; start 29 (KGLVRRYVAG...) derived from printed primer and V32/Y35/V36 numbering; N-terminal MBP tag kept; E. coli TOP10; tetramer; FAD
The description is as above. Conditions: covalent; suicide inhibitor, flavin N(5)-Lys99 adduct; 40 µM enzyme, pH 7.4, 25 °C. The class given is biochemical.

Series [6] deals with the molecule itself. Nature of the series: native MS; nanoflow ESI-MS of the native MBP-fused variants; source backing pressure 7.8 mbar, cone voltage 100-150 V.
Series [7] concerns the molecule itself. Nature of the series: SEC; analytical gel filtration on Superdex 200 of each MBP-fused variant alone, as described in ref. 19. Background: In gel filtration, larger molecules generally elute earlier.
Series [8] deals with the molecule itself. As to the kind of experiment: SEC; 20 µM EE and 20 µM ΔABC mixed in 50 mM sodium phosphate pH 7.4, incubated at room temperature overnight, then Superdex 200 gel filtration; SDS-PAGE of the fractions.

Consider `C#CCNCC(=O)O` [N-propargylglycine], for which the “% residual activity after 90 min at 2.5 mM” value was ~ 13% in series [1]; 30% in series [2]; 63% in series [3]; “For ΔA and ΔAB the activity loss is even more pronounced” in series [4]; “For ΔA and ΔAB the activity loss is even more pronounced” in series [5].

B1: MBP-TtProDH ΔA (MBP-TtProDH lacking helix αA) (domain or fragment, Thermus thermophilus)
chain: QVERLIKHRAKGLVRRYVAGETLEEALKAAEALEREGVHAILDLLGEMVRTEEEARAFQRGLLELVWALAGKPWPKYISLKLTQLGLDLSEDLALALLREVLREAEPRGVFVRLDMEDSPRVEATLRLYRALREEGFSQVGIVLQSYLYRTEKDLLDLLPYRPNLRLVKGAYREPKEVAFPDKRLIDAEYLHLGKLALKEGLYVAFATHDPRIIAELKRYTEAMGIPRSRFEFQFLYGVRPEEQRRLAREGYTVRAYVPYGRDWYPYLTRRIAERPENLLLVLRSLVSGLE
notes: Proline dehydrogenase (TtProDH), Thermus thermophilus, lacking helix αA; C-terminal tail of TtProDH (part of helix α8), residues 288-309 as printed; Cloned with EcoRI and HindIII into pBAD-MBP; not shown: MBP, N-terminal, kept
The stoichiometry N is a count of units in the complex or per binding partner. On to B1, for which the “stoichiometry N” value stood at 2 in series [6] and 4 in series [7].

B2: MBP-TtProDH ΔAB (MBP-TtProDH lacking helices αA and αB) (domain or fragment, Thermus thermophilus)
chain: KGLVRRYVAGETLEEALKAAEALEREGVHAILDLLGEMVRTEEEARAFQRGLLELVWALAGKPWPKYISLKLTQLGLDLSEDLALALLREVLREAEPRGVFVRLDMEDSPRVEATLRLYRALREEGFSQVGIVLQSYLYRTEKDLLDLLPYRPNLRLVKGAYREPKEVAFPDKRLIDAEYLHLGKLALKEGLYVAFATHDPRIIAELKRYTEAMGIPRSRFEFQFLYGVRPEEQRRLAREGYTVRAYVPYGRDWYPYLTRRIAERPENLLLVLRSLVSGLE
notes: Proline dehydrogenase (TtProDH), Thermus thermophilus, lacking helices αA and αB; C-terminal tail of TtProDH (part of helix α8), residues 288-309 as printed; not shown: MBP, N-terminal, kept
Turning to B2, the “stoichiometry N” value in series [6] came out at 2; in series [7], 4.

B3: MBP-TtProDH ΔAB Y35F (domain or fragment, Thermus thermophilus)
chain: KGLVRRFVAGETLEEALKAAEALEREGVHAILDLLGEMVRTEEEARAFQRGLLELVWALAGKPWPKYISLKLTQLGLDLSEDLALALLREVLREAEPRGVFVRLDMEDSPRVEATLRLYRALREEGFSQVGIVLQSYLYRTEKDLLDLLPYRPNLRLVKGAYREPKEVAFPDKRLIDAEYLHLGKLALKEGLYVAFATHDPRIIAELKRYTEAMGIPRSRFEFQFLYGVRPEEQRRLAREGYTVRAYVPYGRDWYPYLTRRIAERPENLLLVLRSLVSGLE
notes: Proline dehydrogenase (TtProDH), Thermus thermophilus, lacking helices αA and αB, with Y35F in helix αC; C-terminal tail of TtProDH (part of helix α8), residues 288-309 as printed; Identical subunits by denaturing MS; not shown: MBP, N-terminal, kept
Regarding B3, the “stoichiometry N” value in series [7] stood at 4.

B4: MBP-TtProDH ΔAB V32D (domain or fragment, Thermus thermophilus)
chain: KGLDRRYVAGETLEEALKAAEALEREGVHAILDLLGEMVRTEEEARAFQRGLLELVWALAGKPWPKYISLKLTQLGLDLSEDLALALLREVLREAEPRGVFVRLDMEDSPRVEATLRLYRALREEGFSQVGIVLQSYLYRTEKDLLDLLPYRPNLRLVKGAYREPKEVAFPDKRLIDAEYLHLGKLALKEGLYVAFATHDPRIIAELKRYTEAMGIPRSRFEFQFLYGVRPEEQRRLAREGYTVRAYVPYGRDWYPYLTRRIAERPENLLLVLRSLVSGLE
notes: Proline dehydrogenase (TtProDH), Thermus thermophilus, lacking helices αA and αB, with V32D in helix αC; C-terminal tail of TtProDH (part of helix α8), residues 288-309 as printed; lacking in a part of the preparation; The preparation is a mixture: partially intact and partially cleaved before R288 (two subunit masses, 73.0 and 75.5 kDa); Mainly dimers by SEC, tetramers and dimers by …
Turning to B4, the “stoichiometry N” value in series [6] was 4; in series [7] it was 2.

B5: MBP-TtProDH ΔAB V36D (domain or fragment, Thermus thermophilus)
chain: KGLVRRYDAGETLEEALKAAEALEREGVHAILDLLGEMVRTEEEARAFQRGLLELVWALAGKPWPKYISLKLTQLGLDLSEDLALALLREVLREAEPRGVFVRLDMEDSPRVEATLRLYRALREEGFSQVGIVLQSYLYRTEKDLLDLLPYRPNLRLVKGAYREPKEVAFPDKRLIDAEYLHLGKLALKEGLYVAFATHDPRIIAELKRYTEAMGIPRSRFEFQFLYGVRPEEQRRLAREGYTVRAYVPYGRDWYPYLTRRIAERPENLLLVLRSLVSGLE
notes: Proline dehydrogenase (TtProDH), Thermus thermophilus, lacking helices αA and αB, with V36D in helix αC; C-terminal tail of TtProDH (part of helix α8), residues 288-309 as printed; lacking in a part of the preparation; The preparation is a mixture: partially intact and partially cleaved before R288 (two subunit masses, 73.0 and 75.5 kDa); Mainly dimers by SEC, tetramers and dimers by …
For B5, the “stoichiometry N” value in series [6] was determined as 4; in series [7], 2.

B6: MBP-TtProDH ΔABC (MBP-TtProDH lacking helices αA, αB and αC) (domain or fragment, Thermus thermophilus, UniProt Q72IB8 38-287, looked up)
chain: GETLEEALKAAEALEREGVHAILDLLGEMVRTEEEARAFQRGLLELVWALAGKPWPKYISLKLTQLGLDLSEDLALALLREVLREAEPRGVFVRLDMEDSPRVEATLRLYRALREEGFSQVGIVLQSYLYRTEKDLLDLLPYRPNLRLVKGAYREPKEVAFPDKRLIDAEYLHLGKLALKEGLYVAFATHDPRIIAELKRYTEAMGIPRSRFEFQFLYGVRPEEQRRLAREGYTVRAYVPYGRDWYPYLT
notes: Proline dehydrogenase (TtProDH), Thermus thermophilus, lacking the whole N-terminal arm; PDB 5M42)'; the construct encodes up to residue 309, but the observed species is C-terminally truncated, cleaved before Arg288 (residues 288-309 removed); The difference of the predicted masses of ΔAB and ΔABC (75.5 against 74.4 kDa) fits a start at G38; not shown: MBP, N-terminal, kept
Take B6: the “stoichiometry N” value was determined as 4 in series [6] and 2 in series [7].

B7: MBP-TtProDH variant EE (MBP-TtProDH with Phe10 and Leu12 replaced by Glu) (enzyme, Thermus thermophilus)
chain: MNLDLAYRSEVEGVAGHPQVERLIKHRAKGLVRRYVAGETLEEALKAAEALEREGVHAILDLLGEMVRTEEEARAFQRGLLELVWALAGKPWPKYISLKLTQLGLDLSEDLALALLREVLREAEPRGVFVRLDMEDSPRVEATLRLYRALREEGFSQVGIVLQSYLYRTEKDLLDLLPYRPNLRLVKGAYREPKEVAFPDKRLIDAEYLHLGKLALKEGLYVAFATHDPRIIAELKRYTEAMGIPRSRFEFQFLYGVRPEEQRRLAREGYTVRAYVPYGRDWYPYLTRRIAERPENLLLVLRSLVSGLE
notes: Proline dehydrogenase (TtProDH), Thermus thermophilus, from its start to residue 287; C-terminal tail of TtProDH (part of helix α8), residues 288-309 as printed; The last residues of the printed tail (LE) may stem from the construct and not from the natural protein (my surmise); also called MBP-TtProDH EE; not shown: MBP, N-terminal, kept
On to B7, for which, in series [8], the “stoichiometry N” value was found to be 4.

These data come from paper PMC6017737, “Functional Impact of the N-terminal Arm of Proline Dehydrogenase from Thermus thermophilus” (Molecules : A Journal of Synthetic Chemistry and Natural …, 2018).
